Assay [1] has as its target 23 amino acid synthetic M2e peptide of A/Fort Worth/1/50 (influenza A virus H1N1 A/Fort Worth/1/50). The assay can be described thus: ELISA on 23mer M2e peptide coated at 1 µg/ml. On the technique in general: ELISA stands for enzyme-linked immunosorbent assay.
Assay [2] addresses SEQ ID NO 307. The assay can be described thus: peptide ELISA, mAb 5 µg/mL.
The target in assay [3] is SEQ ID NO 308. The assay can be described thus: peptide ELISA, mAb 5 µg/mL.
The target in assay [4] is SEQ ID NO 273. The assay can be described thus: peptide ELISA, mAb 5 µg/mL.

A word on the EC50: it is the concentration giving half of the maximal effect. High values mean a need for much substance, low ones an effect from little substance.

In turn, “chimeric mouse V-region/human IgG1 kappa 14C2 antibody” had an EC50 in assay [1] of 0.01 µg/mL.

B1: 23K12 (TCN-031) (antibody, V domains shown)
VH: EVQLVESGGGLVQPGGSLRISCAASGFTVSSNYMSWVRQAPGKGLEWVSVIYSGGSTYYADSVKGRFSFSRDNSKNTVFLQMNSLRAEDTAVYYCARCLSRMRGYGLDVWGQGTTVTVS
VL: DIQMTQSPSSLSASVGDRVTITCRTSQSISSYLNWYQQKPGKAPKLLIYAASSLQSGVPSRFSGSGSGTDFTLTISGLQPEDFATYYCQQSYSMPAFGQGTKLEIK
As for B1, the ELISA A450 in assay [2] was found to be 0.58; in assay [3], 0.62; in assay [4], 0.22.

The values above are taken from US20140363441A1 (priority 2013, published 2014).
